In assay [1] the target is T1, human GARP-TGF-β1 complex (recombinant complex of human GARP and latent human TGF-β1) (human, UniProt Q14392 20-627; P01137 30-278; P01137 279-390).
T1 construct: also called huGARP-TGF-β1; hGARP-TGF-β1
The assay can be described thus: SPR, IgG1 on human GARP-TGF-β1 complex. The source says:
The five germlined clones reformatted to human IgG1 were produced by transient transfection in HEK 293E cells.
On the technique in general: Surface plasmon resonance follows binding to a sensor surface in real time, without labels.

Assay [2] concerns the target T1, human GARP-TGF-β1 complex (recombinant …). Put plainly: SPR Biacore T200, CM5 chip coated with GARP-TGF-β1 complex at 150 RU. On the procedure: (§1) The affinity of all antibodies (including 39B6-A) for GARP-TGF-β1 was tested by BiacoreT200 using a CM5 chip coated with GARP-TGF-β1 complex at 150RU (Table 17) or coated with the antibodies at 200RU (Table 17)
Assay [3] shares this target. Put plainly: SPR Biacore T200, CM5 chip coated with the antibody at 200 RU, complex in solution. The method, then: as §1

T1 sequence (Q14392 20-627 limits assumed, chain 1 of 3): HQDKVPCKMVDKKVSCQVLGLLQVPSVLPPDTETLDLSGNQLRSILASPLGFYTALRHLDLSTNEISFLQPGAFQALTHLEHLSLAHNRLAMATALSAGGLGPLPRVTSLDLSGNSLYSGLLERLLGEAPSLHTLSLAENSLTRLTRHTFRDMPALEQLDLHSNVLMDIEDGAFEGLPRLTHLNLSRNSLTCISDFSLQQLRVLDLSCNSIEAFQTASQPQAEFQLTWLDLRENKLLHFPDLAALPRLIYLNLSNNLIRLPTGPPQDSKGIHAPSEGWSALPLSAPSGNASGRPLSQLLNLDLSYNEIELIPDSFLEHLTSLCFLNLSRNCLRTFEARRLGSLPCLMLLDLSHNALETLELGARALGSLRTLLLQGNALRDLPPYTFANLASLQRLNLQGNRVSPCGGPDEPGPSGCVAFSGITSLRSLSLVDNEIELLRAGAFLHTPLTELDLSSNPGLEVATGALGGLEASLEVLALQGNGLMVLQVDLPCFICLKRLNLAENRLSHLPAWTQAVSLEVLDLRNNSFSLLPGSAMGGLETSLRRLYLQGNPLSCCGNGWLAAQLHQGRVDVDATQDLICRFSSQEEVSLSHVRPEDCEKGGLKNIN
T1 sequence (P01137 30-278 limits assumed, chain 2 of 3): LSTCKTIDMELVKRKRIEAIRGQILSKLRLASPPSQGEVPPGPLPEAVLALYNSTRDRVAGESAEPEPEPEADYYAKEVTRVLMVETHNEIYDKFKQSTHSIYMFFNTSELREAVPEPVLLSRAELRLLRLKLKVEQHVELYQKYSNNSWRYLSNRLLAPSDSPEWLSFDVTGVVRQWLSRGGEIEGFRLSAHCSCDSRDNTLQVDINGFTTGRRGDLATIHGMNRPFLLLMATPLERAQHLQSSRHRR
T1 sequence (P01137 279-390 limits assumed, chain 3 of 3): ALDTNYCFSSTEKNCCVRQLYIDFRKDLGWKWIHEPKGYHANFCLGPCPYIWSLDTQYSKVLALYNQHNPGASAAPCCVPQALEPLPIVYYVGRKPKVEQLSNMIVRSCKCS

B1: 39A5 human IgG1 (antibody, V domains shown)
VH: QVQLVQPGAELRNPGASVKVSCKASGYRFTSYYIDWVRQAPGQGLEWMGRIDPEDGGTKYAQKFQGRVTFTRDTSTSTVYMELSSLRSEDTAVYYCARNEWETVVVGDLMYEYEYWGQGTLVT
VL: DIQMTQSPSSLSASLGDRVTITCQASQSISSYLAWYQQKPGQAPKLLIYGASRLKTGVPSRFSGSGSGTDFTLTISSLQPEDAATYYCQQYASVPVTFGQGTKVEIK
notes: Full human IgG1, made in HEK 293E cells
What is called Kd is the concentration at which binding is half-saturated. Consider B1, for which, in assay [1], the dissociation constant (Kd) worked out at 0.298 nM and the “fold difference (KD vs 17H5)” value was determined as 3 fold.

B2: 39B6-A IgG4 S228P (antibody, V domains shown)
VH: QVQLVQPGAEVRKPGASVKVSCKASGYRFTSYYIDWVRQAPGQGLEWMGRIDPEDAGTKYAQKFQGRVTMTADTSTSTVYVELSSLRSEDTAVYYCARNEWETVVVGDLMYEYEYWGQGTLVTVSS
VL: DIQMTQSPSSLSASVGDRVTITCQASQSISSYLAWYQQKPGQAPKILIYGASRLKTGVPSRFSGSGSGTSFTLTISSLEPEDAATYYCQQYASVPVTFGQGTKVEIKR
notes: 39B6 with G55A in HCDR2, in the human IgG4 S228P backbone; also called 39B6-ANE
As for B2, in assay [2], the “Fold-difference (KD vs 39B6-A)” value was determined as 1 fold and the dissociation constant Kd turned out to be 0.991 nM. Also, in assay [3], the “Fold-difference (KD vs 39B6-A)” value was 1 fold and the equilibrium dissociation constant (Kd) was found to be 1.33 nM.

B3: 39B6-AEE IgG4 S228P (antibody, V domains shown)
VH: QVQLVQPGAEVRKPGASVKVSCKASGYRFTSYYIDWVRQAPGQGLEWMGRIDPEDAGTKYAQKFQGRVTMTADTSTSTVYVELSSLRSEDTAVYYCAREEWETVVVGDLMYEYEYWGQGTLVTVSS
VL: DIQMTQSPSSLSASVGDRVTITCQASQSISSYLAWYQQKPGQAPKILIYGASRLKTGVPSRFSGSGSGTSFTLTISSLEPEDAATYYCQQYASVPVTFGQGTKVEIKR
For the molecule B3, in assay [2], the “Fold-difference (KD vs 39B6-A)” value was determined as 5.8 fold and the dissociation constant (Kd) came out at 5.79 nM. Also, in assay [3], the “Fold-difference (KD vs 39B6-A)” value stood at 76.7 fold and the Kd was found to be 102 nM.

B4: 39B10 human IgG1 (antibody, V domains shown)
VH: EVQLVQSGAELKKPGASVKVSCKASGYRFTSYYIDWVRQAPGQGLEWMGRIDPEEGGTKYAQKFQGRVTMTADTSTSTAYMELSSLRSEDTAVYYCARNEWETVVVGDLMYEYEYWGQGTLVTVSS
VL: DIQMTQSPSSLSASLGDRVTITCQASQSISSYLAWYQQKPGQAPNILIYGASRLKTGVPSRFSGSGSGTDFTLTISGLEAEDFATYYCQQYASVPVTFGQGTKVEIK
notes: as for B1
For B4, in assay [1], the equilibrium dissociation constant (Kd) worked out at 0.262 nM and the “fold difference (KD vs 17H5)” value amounted to 2.6 fold.

B5: 38F2 human IgG1 (antibody, V domains shown)
VH: QVQLVQPGAELKKPGASVKVSCKASGYRFTSYYIDWVRQAPGQGLEWMGRIDPEDAGTKYAQKFQGRVTFTADTSTSTVYVELSSLRSEDTAVYYCARNEWETVVVGDLTYEYEYWGQGTLVTVSS
VL: DIQMTQSPSSLSASVGDRVTITCQASQSISSYLAWYQQKPGKAPNLLIYGASRLKTEVPSRFSGSGSGTDFTLISGLEPEDAGTYYCQQYASVPVTFGQGTKVEIK
notes: as for B1
For the molecule B5, in assay [1], the Kd stood at 0.48 nM and the “fold difference (KD vs 17H5)” value was determined as 4.8 fold.

B6: 39B6 human IgG1 (antibody, V domains shown)
VH: QVQLVQPGAEVRKPGASVKVSCKASGYRFTSYYIDWVRQAPGQGLEWMGRIDPEDGGTKYAQKFQGRVTMTADTSTSTVYVELSSLRSEDTAVYYCARNEWETVVVGDLMYEYEYWGQGTLVTVSS
VL: DIQMTQSPSSLSASVGDRVTITCQASQSISSYLAWYQQKPGQAPKILIYGASRLKTGVPSRFSGSGSGTSFTLTISSLEPEDAATYYCQQYASVPVTFGQGTKVEIK
notes: as for B1
For B6, in assay [1], the Kd worked out at 0.167 nM and the “fold difference (KD vs 17H5)” value worked out at 1.7 fold.

B7: 39A12 human IgG1 (antibody, V domains shown)
VH: EVQLVQPGAEVKKPGASVKVSCKASGYRFTSYYIDWVRQAPGQGLEWMGRIDPEEGGTKYAQKFQGRVTFTADTSTSTVYVELSSLRSEDTAVYYCARNEWETVVVGDLTYEYEYWGQGTLVTVSS
VL: DIQMTQSPSSLSASVGDRVTITCQASQSISSYLAWYQQKPGQAPKILIYGASRLKTGVPSRFSGSGSGTDFTLTISSLQAEDFATYYCQQYASVPVTFGQGTKVEIK
notes: Full human IgG1, made in HEK 293E cells; also called 39A12_T
As for B7, in assay [1], the Kd came out at 0.505 nM and the “fold difference (KD vs 17H5)” value amounted to 5.1 fold.

The record behind these values is patent publication US20210324061A1 (ARGENX BVBA, published 2021).
